Patent US20220064281A1 (Ablynx, published 2022)

Legend:
human TNFα [1] = target: T1, human TNFα (human, UniProt P01375 77-233); assay: cell-based or functional assay
cyno TNFα [2] = target: T2, cyno TNFα (cynomolgus monkey, UniProt P79337 77-233); assay: cell-based or functional assay
OX40L = target: T3, OX40L (human, UniProt P23510); assay: SPR (ProteOn XPR36): 100 nM F027500069 captured on immobilized HSA, then 100 nM hOX40L injected for 2 min, alone or mixed with 100 nM IL-23 or TNFα, followed by 600 s dissociation
T3 construct: soluble recombinant protein; also called hOX40L
T3 sequence (ligand chain, looked up): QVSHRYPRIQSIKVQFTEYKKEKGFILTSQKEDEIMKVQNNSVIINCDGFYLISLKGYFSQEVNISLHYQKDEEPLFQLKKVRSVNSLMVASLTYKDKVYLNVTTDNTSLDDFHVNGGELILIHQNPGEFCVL
Description: A ProteOn XPR36 instalment was used to determine whether F027500069 can bind simultaneously to hTNFα and hIL-23. To this end HSA was immobilized on a GLC ProteOn Sensor chip via amine coupling. 100 nM of F027500069 was injected for 2 min at 10 μl/min over the HSA surface in order to capture the ISVD via the ALB23002 building block. Subsequently either 100 nM of hIL-23, hTNFα or hOX40L were injected or mixtures of 100 nM IL-23+100 nM TNFα, 100 nM IL-23+100 nM OX40L or 100 nM TNFα+[…], at a flow rate of 10 μl/min for 2 min followed by a subsequent 600 seconds dissociation step. The HSA surfaces were regenerated with a 2-minute injection of HCl (100 mM) at 45 μl/min.

human membrane TNFα [3] = target: T4, human membrane TNFα (human, UniProt P01375 1-233); assay: flow cytometry, human membrane TNFα expressing HEK293H cells, fixed cells, 1 h at 4 °C
T4 construct: whole, on cells; also called membrane expressed TNFα
T4 sequence (P01375 whole entry): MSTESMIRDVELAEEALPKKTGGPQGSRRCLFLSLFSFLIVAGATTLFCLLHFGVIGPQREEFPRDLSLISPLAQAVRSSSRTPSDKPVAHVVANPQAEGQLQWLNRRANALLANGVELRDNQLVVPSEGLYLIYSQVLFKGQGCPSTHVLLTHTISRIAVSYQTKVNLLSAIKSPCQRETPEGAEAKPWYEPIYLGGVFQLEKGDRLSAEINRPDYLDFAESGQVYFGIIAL
Description: (§1) Briefly, cells were seeded at a density of 1×10⁴ cells/well and incubated with a dilution series of F027500069 starting from 100 nM up to 0.5 pM, for 1 hour at 4° C. In parallel, cells were fixed with 4% paraformaldehyde and 0.1% Glutaraldehyde in PBS, before seeding (to increase detection of membrane bound TNFα) and incubated with a dilution series of ISVD for 1 hour at 4° C. or for 24 hours at room temperature. Cells were washed 3 times and subsequently incubated with an anti-VHH mAb for 30 min at 4° C., washed again, and incubated for 30 min at 4° C. with a goat anti-mouse PE labelled antibody. Samples were washed and resuspended in FACS Buffer (D-PBS with 10% FBS and 0.05% sodium azide supplemented with 5 nM TOPRO3). Cell suspensions were then analysed on an iQuescreener. EC50 values were calculated using GraphPad Prism.

human TNFα [4] = target: T1, human TNFα; assay: Gyrolab in-solution affinity, 24 h incubation
Text: (§2) Biotinylated human TNFα/IL-23/serum albumin was captured in the microstructures of a Gyrolab Bioaffy 1000 CD, which contains columns of beads and is used as a molecular probe to capture free F027500069 from the equilibrated solution. The mixture of TNFα/IL-23/serum albumin and F027500069 (containing free TNFα/IL-23/serum albumin, free F027500069 and TNFα/IL-23/serum albumin—F027500069 complexes) was allowed to flow through the beads, and a small percentage of free F027500069 was captured, which is proportional to the free ISVD concentration. A fluorescently labelled anti-VHH antibody was then injected to label any captured F027500069 and after rinsing away excess of fluorescent probe, the change in fluorescence was determined. Fitting of the dilution series was done using Gyrolab Analysis software, where KD⁻ and receptor-controlled curves were analyzed to determine the KD value.

cyno IL-23 [5] = target: T5, cyno IL-23 (cynomolgus monkey); assay: Gyrolab in-solution affinity, 24 h incubation
T5 construct: also called recombinant IL-23 from cynomolgus monkey
Text: as §2

cyno TNFα [6] = target: T2, cyno TNFα; assay: Gyrolab in-solution affinity, 24 h incubation
Text: as §2

human membrane TNFα [7] = target: T4, human membrane TNFα; assay: flow cytometry, human membrane TNFα expressing HEK293H cells, fixed cells, 24 h at room temperature
Description: as §1

human TNFβ = target: T6, human TNFβ (human, UniProt P01374 35-205); assay: SPR, target immobilized by amine coupling, F027500069 injected
T6 construct: also called huTNFβ
T6 sequence (looked up): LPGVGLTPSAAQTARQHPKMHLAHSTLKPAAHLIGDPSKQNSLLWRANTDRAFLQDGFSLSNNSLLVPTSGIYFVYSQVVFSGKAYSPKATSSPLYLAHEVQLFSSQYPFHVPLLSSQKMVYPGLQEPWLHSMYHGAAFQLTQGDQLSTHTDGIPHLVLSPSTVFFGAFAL
Description: (§3) Absence of binding to TNFα and IL-23 related human cytokines was assessed via SPR. hIL-12 was tested, as it shares the p40 subunit with IL-23. TNF superfamily members human FASL, TNFβ, LIGHT, TL-1A, RANKL were tested as related cytokines for TNFα.
(§4) Next, 1 μM of F027500069 was injected for 2 minutes and allowed to dissociate for 900s at a flow rate of 45 μL/min. As running buffer 1×HBS-EP+ pH7.4 was used. As positive controls, 0.2 μM α-huIL-12 Ab and 0.5 μM α-huFASL Ab, 0.5 μM α-huTNFβ Ab, 0.5 μM α-huLIGHT Ab, 0.5 μM α-huTL-1A Ab and 0.5 μM α-huRANKL VHH were injected. Interaction between F027500069 and the positive controls with the immobilized targets was measured by detection of increases in […] which occurs as a result of mass changes on the chip upon binding.

human FASL = target: T7, human FASL (human, UniProt P48023 134-281, limits assumed); assay: as above
T7 construct: also called huFASL
T7 sequence (looked up): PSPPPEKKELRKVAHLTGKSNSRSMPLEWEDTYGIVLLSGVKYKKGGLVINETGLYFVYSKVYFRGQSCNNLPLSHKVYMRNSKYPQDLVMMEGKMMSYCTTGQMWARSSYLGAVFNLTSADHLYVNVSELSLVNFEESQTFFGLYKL
Description: as §3, §4

human TL-1A = target: T8, human TL-1A (human, UniProt O95150 72-251); assay: as above
T8 construct: also called huTL-1A
T8 sequence (looked up): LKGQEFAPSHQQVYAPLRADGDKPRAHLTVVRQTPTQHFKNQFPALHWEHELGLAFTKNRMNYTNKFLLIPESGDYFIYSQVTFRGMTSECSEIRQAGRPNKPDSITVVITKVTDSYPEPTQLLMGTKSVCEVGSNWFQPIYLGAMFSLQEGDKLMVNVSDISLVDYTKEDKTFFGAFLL
Description: as §3, §4

human IL-12 = target: T9, human IL-12 (human, UniProt P29459 23-219; P29460 23-328); assay: as above
T9 construct: also called hIL-12
T9 sequence (looked up) 1: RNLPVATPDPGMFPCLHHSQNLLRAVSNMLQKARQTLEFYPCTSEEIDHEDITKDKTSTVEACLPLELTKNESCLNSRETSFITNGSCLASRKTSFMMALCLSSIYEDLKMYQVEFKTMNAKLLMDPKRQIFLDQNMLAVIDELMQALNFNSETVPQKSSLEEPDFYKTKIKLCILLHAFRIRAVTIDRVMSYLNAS
T9 sequence (looked up) 2: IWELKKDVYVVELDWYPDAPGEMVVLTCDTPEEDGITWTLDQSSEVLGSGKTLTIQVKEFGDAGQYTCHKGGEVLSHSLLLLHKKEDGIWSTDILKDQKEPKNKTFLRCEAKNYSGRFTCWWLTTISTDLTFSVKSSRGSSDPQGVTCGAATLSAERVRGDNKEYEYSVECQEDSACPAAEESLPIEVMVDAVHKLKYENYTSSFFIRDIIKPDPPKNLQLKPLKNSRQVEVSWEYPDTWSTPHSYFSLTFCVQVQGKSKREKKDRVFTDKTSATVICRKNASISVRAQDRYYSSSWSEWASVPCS
Description: as §3, §4

human LIGHT = target: T10, human LIGHT (human, UniProt O43557 74-240, limits assumed); assay: as above
T10 construct: also called huLIGHT
T10 sequence (O43557 74-240 limits assumed): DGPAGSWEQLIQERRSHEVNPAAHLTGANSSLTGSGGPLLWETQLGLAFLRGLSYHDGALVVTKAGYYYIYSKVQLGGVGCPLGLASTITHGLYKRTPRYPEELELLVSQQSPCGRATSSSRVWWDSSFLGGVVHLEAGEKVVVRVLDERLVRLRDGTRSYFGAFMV
Description: as §3, §4

human RANKL = target: T11, human RANKL (human, UniProt O14788 140-317, limits assumed); assay: as above
T11 construct: also called huRANKL
T11 sequence (looked up): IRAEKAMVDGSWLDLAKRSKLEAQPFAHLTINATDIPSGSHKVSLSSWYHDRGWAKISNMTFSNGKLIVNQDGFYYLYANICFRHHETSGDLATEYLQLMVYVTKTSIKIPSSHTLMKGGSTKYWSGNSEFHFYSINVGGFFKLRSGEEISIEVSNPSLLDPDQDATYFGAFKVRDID
Description: as §3, §4

human membrane TNFα [8] = target: T4, human membrane TNFα; assay: flow cytometry, human membrane TNFα expressing HEK293H cells, viable cells, 1 h at 4 °C
Description: as §1

human TNFα [9] = target: T1, human TNFα; assay: Gyrolab in-solution affinity, 48 h incubation
Text: as §2

cyno IL-23 [10] = target: T5, cyno IL-23; assay: Gyrolab in-solution affinity, 48 h incubation
Text: as §2

cyno TNFα [11] = target: T2, cyno TNFα; assay: Gyrolab in-solution affinity, 48 h incubation
Text: as §2

human membrane TNFα [12] = target: T4, human membrane TNFα; assay: flow cytometry, human membrane TNFα expressing HEK293H cells, fixed cells
Description: as §1

cyno IL-23 [13] = target: T5, cyno IL-23; assay: cell-based or functional assay
human serum albumin = target: T12, human serum albumin (human, UniProt P02768 25-609); assay: Gyrolab in-solution affinity, 2 h incubation
T12 construct: also called HSA; SA (human)
T12 sequence (P02768 25-609 limits assumed): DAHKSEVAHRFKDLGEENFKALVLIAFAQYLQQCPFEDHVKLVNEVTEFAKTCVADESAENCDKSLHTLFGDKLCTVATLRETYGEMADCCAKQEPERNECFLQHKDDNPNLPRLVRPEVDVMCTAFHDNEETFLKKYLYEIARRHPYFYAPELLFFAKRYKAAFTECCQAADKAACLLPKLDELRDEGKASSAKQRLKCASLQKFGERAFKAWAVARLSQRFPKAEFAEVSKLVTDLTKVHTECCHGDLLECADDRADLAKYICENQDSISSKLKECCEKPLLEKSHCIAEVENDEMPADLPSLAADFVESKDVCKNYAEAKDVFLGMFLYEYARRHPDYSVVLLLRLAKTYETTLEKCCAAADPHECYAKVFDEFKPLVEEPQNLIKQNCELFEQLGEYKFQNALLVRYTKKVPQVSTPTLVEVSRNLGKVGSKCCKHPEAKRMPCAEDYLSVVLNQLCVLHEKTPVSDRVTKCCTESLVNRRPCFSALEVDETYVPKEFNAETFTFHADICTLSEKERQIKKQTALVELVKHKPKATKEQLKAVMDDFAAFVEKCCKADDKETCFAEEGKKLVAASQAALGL
Text: as §2

cyno serum albumin = target: T13, cyno serum albumin (cynomolgus monkey, UniProt A2V9Z4 25-608); assay: Gyrolab in-solution affinity, 2 h incubation
T13 construct: also called SA (cynomolgus monkey)
T13 sequence (A2V9Z4 25-608 limits assumed): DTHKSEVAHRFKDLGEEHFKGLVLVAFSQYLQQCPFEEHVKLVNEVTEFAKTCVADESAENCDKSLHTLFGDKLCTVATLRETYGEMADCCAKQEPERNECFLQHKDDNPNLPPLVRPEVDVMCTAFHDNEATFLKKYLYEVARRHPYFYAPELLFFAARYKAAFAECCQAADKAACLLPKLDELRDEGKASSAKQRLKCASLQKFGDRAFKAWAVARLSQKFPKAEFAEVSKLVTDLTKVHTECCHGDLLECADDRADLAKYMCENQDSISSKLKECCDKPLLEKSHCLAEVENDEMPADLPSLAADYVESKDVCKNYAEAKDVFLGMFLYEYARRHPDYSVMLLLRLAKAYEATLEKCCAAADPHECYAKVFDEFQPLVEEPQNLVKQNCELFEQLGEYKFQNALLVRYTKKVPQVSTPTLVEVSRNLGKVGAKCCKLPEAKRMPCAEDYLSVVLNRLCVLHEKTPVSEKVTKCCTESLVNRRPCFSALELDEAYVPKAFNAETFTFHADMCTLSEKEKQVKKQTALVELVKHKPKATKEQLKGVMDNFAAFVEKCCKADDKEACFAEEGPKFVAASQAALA
Text: as §2

T1 sequence (P01375 77-233 limits assumed): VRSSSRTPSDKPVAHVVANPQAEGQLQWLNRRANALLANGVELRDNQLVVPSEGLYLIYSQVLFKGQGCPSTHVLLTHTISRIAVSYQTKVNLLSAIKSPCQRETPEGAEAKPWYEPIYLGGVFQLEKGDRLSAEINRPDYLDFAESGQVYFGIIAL
T2 sequence (P79337 77-233 limits assumed): as the sequence (P01375 77-233 limits assumed) above, with L37V, R44T, T72N, R138L counted along it

B1: F027500069 (VHH)
chain: DVQLVESGGGVVQPGGSLRLSCTASGFTFSTADMGWFRQAPGKGREFVARISGIDGTTYYDEPVKGRFTISRDNSKNTVYLQMNSLRPEDTALYYCRSPRYADQWSAYDYWGQGTLVTVSSGGGGSGGGSEVQLVESGGGVVQPGGSLRLSCAASGRIFSLPASGNIFNLLTIAWYRQAPGKQRELVATIESGSRTNYADSVKGRFTISRDNSKKTVYLQMNSLRPEDTALYYCQTSGSGSPNFWGQGTLVTVSSGGGGSGGGSEVQLVESGGGVVQPGGSLRLSCAASGFTFRSFGMSWVRQAPGKGPEWVSSISGSGSDTLYADSVKGRFTISRDNSKNTLYLQMNSLRPEDTALYYCTIGGSLSRSSQGTLVTVSSGGGGSGGGSEVQLVESGGGVVQPGGSLRLSCAASGRTLSSYAMGWFRQAPGKEREFVARISQGGTAIYYADSVKGRFTISRDNSKNTVYLQMNSLRPEDTALYYCAKDPSPYYRGSAYLLSGSYDSWGQGTLVKVSSA
notes: produced in Pichia pastoris; also called F02750069; ISVD construct F027500069
- NFkB assay IC50 (M); Glo Response HEK293_NFkB-NLucP reporter assay, 25 pM human TNFα (human TNFα [1]): 3.88e-11 M
- NFkB assay IC50 (M); Glo Response HEK293_NFkB-NLucP reporter assay, 70 pM cyno TNFα (cyno TNFα [2]): 1.28e-10 M
- binding result (OX40L): no binding (tested: 100 nM)
- EC50 (human membrane TNFα [3]): 0.811 nM
- Kd (human TNFα [4]): 0.00323 nM
- Kd (cyno IL-23 [5]): 0.0335 nM
- Kd (cyno TNFα [6]): 0.0275 nM
- EC50 (human membrane TNFα [7]): 0.122 nM
- binding result (human TNFβ): no binding (tested: 1 µM)
- binding result (human FASL): no binding (tested: 1 µM)
- binding result (human TL-1A): no binding (tested: 1 µM)
- binding result (human IL-12): no binding (tested: 1 µM)
- binding result (human LIGHT): no binding (tested: 1 µM)
- binding result (human RANKL): no binding (tested: 1 µM)
- EC50 (human membrane TNFα [8]): 0.693 nM
- Kd (human TNFα [9]): 0.00339 nM
- Kd (cyno IL-23 [10]): 0.0512 nM
- Kd (cyno TNFα [11]): 0.0186 nM
- fold improvement of the EC50 (24 hours against 1 hour incubation) (human membrane TNFα [12]): 6.6 fold
- IL-23 reporter assay IC50 (M); Glo Response HEK293_human IL-23R/IL-12Rb1-Luc2P, 40 pM cyno IL-23 (cyno IL-23 [13]): 3.23e-10 M
- Mouse splenocyte assay IC50 (M); IL-23-induced mIL-22 production, 36 pM cyno IL-23 (cyno IL-23 [13]): 3.07e-11 M
- Kd (human serum albumin): 5.9 nM
- Kd (cyno serum albumin): 10.8 nM
